Assay results published in US20250090663A1 (published 2025).

T1: CD70 (antigen of the Carterra KD analysis) (UniProt P32970 39-193)
T1 chain: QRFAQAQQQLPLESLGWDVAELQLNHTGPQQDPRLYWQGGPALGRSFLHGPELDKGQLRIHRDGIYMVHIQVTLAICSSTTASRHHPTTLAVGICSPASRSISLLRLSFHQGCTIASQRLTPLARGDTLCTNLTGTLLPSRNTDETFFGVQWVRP


Tests used:
Assay in all cases: SPR (Carterra); apparent Kd
[1] = molecular target: Positive Control (1C8)
[2] = molecular target: Positive Control (8G1)
[3] = molecular target: Positive Control (27B3)
[4] = molecular target: T1, CD70 (antigen of the Carterra KD …)

Row | Kd [1] [nM] | Kd [2] [nM] | Kd [3] [nM] | Kd [4] [nM] | Binder
1 | 0.652 | 2.19 | 0.634 | – | CD70 (ligand) QRFAQAQQQLPLESLGWDVAELQLNHTGPQQDPRLYWQGGPALGRSFLHGPELDKGQLRIHRDGIYMVHIQVTLAICSSTTASRHHPTTLAVGICSPASRSISLLRLSFHQGCTIASQRLTPLARGDTLCTNLTGTLLPSRNTDETFFGVQWVRP
2 | – | – | – | 23.4 | C1-Fc (anti-CD70 VHH-Fc fusion polypeptide) (Fc fusion) QVQLQESGGGLVQTGGSLRLACTASGFTFDDYAIAWFRQAPGKEREFVAAISWSGGTTHYADSVKGRFTISRDNAKNTLYLQMSSLKPEDTAVYFCAKSLRSSPSSRWFGSRGQGTQVTVSS
3 | – | – | – | 2.73 | H1-Fc (anti-CD70 VHH-Fc fusion polypeptide) (Fc fusion) QVQLQESGGGLVQAGGSLRLSCAAPRSIFSINAMGWYRQAPGKQRELVAAITSGGSPTYADSVKGRFTISRDNAKNTVYLQMNSLKAEDTAVYYCATGPYGLDNALDAWGQGTQVTVSS
